Measurements: US20240269235A1 (Gilead, published 2024)
Substitutions are numbered along the chain they refer to.

B1: Fc-IL-2v heterodimer 110.46 (hIL-2v_Δ1-5_R38G_Y45G_E61A_C125S) (Fc fusion)
chain 1: ESKYGPPCPPCPAPEAAGGPSVFLFPPKPKDTLMISRTPEVTCVVVDVSQEDPEVQFNWYVDGVEVHNAKTKPREEQFNSTYRVVSVLTVLHQDWLNGKEYKCKVSNKGLPSSIEKTISKAKGQPREPQVYTLPPSQEEMTKNQVSLWCLVKGFYPSDIAVEWESNGQPENNYKTTPPVLDSDGSFFLYSRLTVDKSRWQEGNVFSCSVMHEALHNHYTQKSLSLSLGGGGGSGGGGSGGGGSGGGGSSTKKTQLQLEHLLLDLQMILNGINNYKNPKLTGMLTFKFGMPKKATELKHLQCLEAELKPLEEVLNLAQSKNFHLRPRDLISNINVIVLELKGSETTFMCEYADETATIVEFLNRWITFSQSIISTLT
chain 2: ESKYGPPCPPCPAPEAAGGPSVFLFPPKPKDTLMISRTPEVTCVVVDVSQEDPEVQFNWYVDGVEVHNAKTKPREEQFNSTYRVVSVLTVLHQDWLNGKEYKCKVSNKGLPSSIEKTISKAKGQPREPQVYTLPPSQEEMTKNQVSLSCAVKGFYPSDIAVEWESNGQPENNYKTTPPVLDSDGSFFLVSRLTVDKSRWQEGNVFSCSVMHEALHNRFTQKSLSLSLGK
notes: hIgG4 knob-in-hole Fc heterodimer, one IL-2v on the knob chain
B2: Fc-IL-2v heterodimer 102.46 (hIL-2v_Δ1-5_Y45G_E61A_E62A_C125S) (Fc fusion)
chain 1: B1 chain 1 with G281R, E305A
chain 2: B1 chain 2
notes: as for B1
B3: Fc-IL-2v heterodimer 100.46 (hIL-2v_Δ1-5_F42A_E61A_C125S) (Fc fusion)
chain 1: B1 chain 1 with G281R, F285A, G288Y
chain 2: B1 chain 2
notes: as for B1
B4: Fc-IL-2v heterodimer 111.46 (hIL-2v_Δ1-5_R38G_F42A_E61A_C125S) (Fc fusion)
chain 1: B1 chain 1 with F285A, G288Y
chain 2: B1 chain 2
notes: as for B1
B5: Fc-IL-2v heterodimer 112.46 (hIL-2v_Δ1-5_R38G_Y45G_E62A_C125S) (Fc fusion)
chain 1: B1 chain 1 with A304E, E305A
chain 2: B1 chain 2
notes: as for B1
B6: Fc-IL-2v heterodimer 109.46 (hIL-2v_Δ1-5_F42A_Y45G_E61A_C125S) (Fc fusion)
chain 1: B1 chain 1 with G281R, F285A
chain 2: B1 chain 2
notes: as for B1
B7: Fc-IL-2v heterodimer 101.46 (hIL-2v_Δ1-5_F42A_Y45G_C125S) (Fc fusion)
chain 1: B1 chain 1 with G281R, F285A, A304E
chain 2: B1 chain 2
notes: as for B1
B8: Fc-IL-2v heterodimer 116.46 (hIL-2v_Δ1-5_R38G_E61A_E62A_C125S) (Fc fusion)
chain 1: B1 chain 1 with G288Y, E305A
chain 2: B1 chain 2
notes: as for B1
B9: Fc-IL-2v heterodimer 103.46 (hIL-2v_Δ1-5_E61A_E62A_C125S) (Fc fusion)
chain 1: B1 chain 1 with G281R, G288Y, E305A
chain 2: B1 chain 2
notes: as for B1
B10: Fc-IL-2v heterodimer 106.46 (hIL-2v_Δ1-5_R38G_F42A_Y45G_C125S) (Fc fusion)
chain 1: B1 chain 1 with F285A, A304E
chain 2: B1 chain 2
notes: as for B1
B11: Fc-IL-2v heterodimer 104.46 (hIL-2v_Δ1-5_R38G_F42A_C125S) (Fc fusion)
chain 1: B1 chain 1 with F285A, G288Y, A304E
chain 2: B1 chain 2
notes: as for B1
B12: Fc-IL-2v heterodimer 115.46 (hIL-2v_Δ1-5_F42A_E61A_E62A_C125S) (Fc fusion)
chain 1: B1 chain 1 with G281R, F285A, G288Y, E305A
chain 2: B1 chain 2
notes: as for B1
B13: Fc-IL-2v heterodimer 97.46 (hIL-2v_Δ1-5_Y45G_E62A_C125S) (Fc fusion)
chain 1: B1 chain 1 with G281R, A304E, E305A
chain 2: B1 chain 2
notes: as for B1
B14: Fc-IL-2v heterodimer 82.46 (hIL-2v_Δ1-5_R38A_C125S) (Fc fusion)
chain 1: B1 chain 1 with G281A, G288Y, A304E
chain 2: B1 chain 2
notes: as for B1
B15: Fc-IL-2v heterodimer 84.46 (hIL-2v_Δ1-5_T41A_C125S) (Fc fusion)
chain 1: B1 chain 1 with G281R, T284A, G288Y, A304E
chain 2: B1 chain 2
notes: as for B1
B16: Fc-IL-2v heterodimer 85.46 (hIL-2v_Δ1-5_F42G_C125S) (Fc fusion)
chain 1: B1 chain 1 with G281R, F285G, G288Y, A304E
chain 2: B1 chain 2
notes: as for B1

target: T1, IL-2Rβγ heterodimer, custom biotinylated Fc fusion protein (human IL-2Rβ 27-240-Fc-FLAG / human IL-2Rγ … (human, site-specific biotinylation at the AviTag)); experiment: SPR (Biacore), CM4 chip, biotinylated receptor on neutravidin
T1 construct: Extracellular regions fused to IgG1 knob-in-hole Fc subunits with tags; also called IL-2 receptor βγ heterodimer; Fc-IL-2Rβγ
Procedure: Fc-IL-2 variant binding data was collected on a Biacore platform using a CM4 chip. Neutravidin was immobilized using standard amine coupling methods and used to capture biotinylated receptors. The source, preparation and immobilization of biotinylated IL-2Rα and IL-2Rβγ heterodimer was as described in Example 4. Proleukin was used as a comparator. Fc-IL-2 variants and Proleukin were injected at various concentrations over these surfaces. Kinetic data obtained from these injections was used to extract kₒₙ and koff to calculate KD (KD=Koff/kₒₙ).

T1 sequence (chain, as listed by the source limits assumed): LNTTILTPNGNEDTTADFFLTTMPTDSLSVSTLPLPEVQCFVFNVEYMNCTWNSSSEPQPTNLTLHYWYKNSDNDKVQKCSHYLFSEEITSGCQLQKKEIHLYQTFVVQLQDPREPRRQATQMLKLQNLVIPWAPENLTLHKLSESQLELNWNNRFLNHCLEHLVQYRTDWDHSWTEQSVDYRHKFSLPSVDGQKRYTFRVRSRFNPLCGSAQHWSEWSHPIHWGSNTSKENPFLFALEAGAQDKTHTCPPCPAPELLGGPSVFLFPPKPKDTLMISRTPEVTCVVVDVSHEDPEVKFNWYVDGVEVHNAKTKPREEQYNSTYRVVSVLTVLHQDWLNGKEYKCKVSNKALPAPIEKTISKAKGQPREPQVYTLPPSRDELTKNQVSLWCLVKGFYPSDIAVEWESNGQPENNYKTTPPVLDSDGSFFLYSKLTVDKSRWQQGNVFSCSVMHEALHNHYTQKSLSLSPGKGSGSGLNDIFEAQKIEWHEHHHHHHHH

Binder	Kd [nM]
B1	0.059
B2	0.073
B3	0.061
B4	0.069
B5	0.066
B6	0.056
B7	0.054
B8	0.115
B9	0.096
B10	0.06
B11	0.061
B12	0.093
B13	0.065

target: T2, trimeric murine IL-2 receptor (IL-2Rα, IL-2Rβ, and IL-2Rγ) on CTLL-2 cells (murine, UniProt P01590 22-268; P16297 27-539; P34902 23-369); experiment: cell-based or functional assay
T2 sequence (looked up) 1: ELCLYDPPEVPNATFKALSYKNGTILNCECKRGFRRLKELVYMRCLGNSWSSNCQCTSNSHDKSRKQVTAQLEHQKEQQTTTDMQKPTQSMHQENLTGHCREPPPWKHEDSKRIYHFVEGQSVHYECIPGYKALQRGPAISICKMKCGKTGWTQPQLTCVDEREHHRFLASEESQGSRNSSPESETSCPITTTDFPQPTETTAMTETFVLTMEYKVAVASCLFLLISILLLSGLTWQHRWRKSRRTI
T2 sequence (looked up) 2: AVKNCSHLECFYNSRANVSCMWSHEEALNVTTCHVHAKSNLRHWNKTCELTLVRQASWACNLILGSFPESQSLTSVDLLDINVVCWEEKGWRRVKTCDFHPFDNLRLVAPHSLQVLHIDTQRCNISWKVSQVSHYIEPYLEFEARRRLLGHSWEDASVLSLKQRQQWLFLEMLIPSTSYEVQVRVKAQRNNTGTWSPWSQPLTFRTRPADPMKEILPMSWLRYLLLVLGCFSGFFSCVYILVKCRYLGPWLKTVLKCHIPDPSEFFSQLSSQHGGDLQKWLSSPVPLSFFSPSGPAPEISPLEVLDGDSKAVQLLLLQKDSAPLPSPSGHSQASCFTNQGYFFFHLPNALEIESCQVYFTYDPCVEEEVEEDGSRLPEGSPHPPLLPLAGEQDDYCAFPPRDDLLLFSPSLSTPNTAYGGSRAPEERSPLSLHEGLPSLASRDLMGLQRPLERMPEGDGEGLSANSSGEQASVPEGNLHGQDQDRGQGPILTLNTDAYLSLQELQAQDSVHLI
T2 sequence (looked up) 3: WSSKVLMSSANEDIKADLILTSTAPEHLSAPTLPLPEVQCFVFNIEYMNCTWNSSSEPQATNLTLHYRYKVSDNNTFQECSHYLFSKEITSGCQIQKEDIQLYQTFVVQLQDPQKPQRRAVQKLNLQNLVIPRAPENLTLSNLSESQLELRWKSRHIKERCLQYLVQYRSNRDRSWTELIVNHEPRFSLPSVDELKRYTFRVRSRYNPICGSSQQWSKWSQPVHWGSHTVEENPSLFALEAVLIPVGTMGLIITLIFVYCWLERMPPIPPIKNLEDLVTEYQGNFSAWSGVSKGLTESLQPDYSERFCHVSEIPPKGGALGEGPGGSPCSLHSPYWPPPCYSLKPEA

Binder	STAT5 activation of CTLL-2 cells, EC50 [nM]
B1	1.5
B2	6.1
B3	1.6
B4	11
B5	13.1
B6	36.2
B7	7.7
B8	16.3
B9	2.7
B10	19.6
B11	1.4
B12	67.1
B13	3.4

target: T3, IL-2Rβ (recombinant IL-2 receptor β, R&D Systems Cat #:224-2B-025/CF), biotinylated (UniProt P14784 27-239, limits assumed, biotinylated using sulfo-NHS-LC-LC-Biotin); experiment: SPR (Biacore), C1 or CM5 chip, biotinylated receptor on neutravidin
T3 construct: Bought reagent; also called IL-2RB; CD122
T3 sequence (looked up): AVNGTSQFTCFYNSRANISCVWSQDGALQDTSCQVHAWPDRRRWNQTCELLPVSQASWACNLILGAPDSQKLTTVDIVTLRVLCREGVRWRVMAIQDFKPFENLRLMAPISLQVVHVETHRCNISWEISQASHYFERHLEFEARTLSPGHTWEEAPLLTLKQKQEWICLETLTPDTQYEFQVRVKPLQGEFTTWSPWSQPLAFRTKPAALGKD
From the text: (§1) Data for binding of Fc-IL-2 variant fusion proteins to IL-2Rα, IL-2Rβ and IL-2Rβγ heterodimer were collected on a Biacore platform using either C1 or CM5 chips. Neutravidin was immobilized using standard amine coupling methods and used to capture biotinylated receptors. Commercially sourced IL-2Rα (R&D Systems Cat #: 223-2A/CF) and IL-2Rβ receptors (R&D Systems Cat #:224-2B-025/CF) were biotinylated using sulfo-NHS-LC-LC-Biotin, desalted, and then captured on the neutravidin surfaces. […] Distinct purification tags were appended to the C-terminus of each chain. A FLAG epitope tag ([…]; SEQ ID NO: 257) was added at the C-terminus of IL-2Rβ subunit, followed by C-terminal Hiss tag ([…]; SEQ ID NO: 258). An AviTag™ ([…]; SEQ ID NO: 259) motif on the IL-2Rγ subunit allowed for site-specific biotinylation of the heterodimer.
(§2) Fc IL 2 fusion protein variants, Fc protein, and Proleukin were injected at various concentrations over these surfaces. Kinetic data obtained from these injections was used to extract kₒₙ and koff to calculate KD (KD=koff/kₒₙ). Experiments were run at 25° C. in HBS-EP+ running buffer (10 mM HEPES, 150 mM NaCl, 3 mM EDTA, 0.05% Tween20, pH 7.4 with 0.1 mg/ml BSA). Data shown in Table 5 for Fc IL-2 fusion protein variants binding to the indicated IL-2R surfaces were derived from the global fitting of data obtained from 2-5 independent surfaces.

Binder	Kd [nM]
B14	8200
B15	7000
B16	7500

target: T4, IL-2Rα (recombinant IL-2 receptor α, R&D Systems Cat #: 223-2A/CF), biotinylated (human, UniProt P01589 22-213, limits assumed, biotinylated using sulfo-NHS-LC-LC-Biotin); experiment: as above
T4 construct: Bought reagent; also used here as the IL-2Rα partner of the in-silico analysis of PDB 2B5I (another construct); also called IL-2RA; CD25
T4 sequence (looked up): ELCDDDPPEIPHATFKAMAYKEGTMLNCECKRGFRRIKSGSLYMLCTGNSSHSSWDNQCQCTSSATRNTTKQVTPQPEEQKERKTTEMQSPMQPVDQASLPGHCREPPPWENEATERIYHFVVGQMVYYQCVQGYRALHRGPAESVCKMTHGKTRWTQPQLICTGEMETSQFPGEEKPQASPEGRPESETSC
From the text: as §1, §2

Binder	Kd [nM]
B14	108
B15	119
B16	4900

target: T5, human IL-2Rα on Treg cells (CD3+, CD4+, CD25hi, FoxP3+) of human PBMC (human, UniProt P01589 22-272); experiment: cell-based or functional assay
T5 sequence (looked up): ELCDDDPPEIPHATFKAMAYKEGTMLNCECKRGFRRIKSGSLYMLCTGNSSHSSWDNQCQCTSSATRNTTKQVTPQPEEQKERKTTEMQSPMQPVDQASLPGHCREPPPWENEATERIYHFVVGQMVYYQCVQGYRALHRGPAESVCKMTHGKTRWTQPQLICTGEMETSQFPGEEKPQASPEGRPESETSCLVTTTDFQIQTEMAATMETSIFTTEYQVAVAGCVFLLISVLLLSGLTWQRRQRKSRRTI

Binder	Treg EC50, STAT5 activation (PBMC STAT5 assay) [nM]
B14	< 0.001
B15	< 0.001
B16	0.06

target: T2, trimeric murine IL-2 receptor (IL-2Rα, …); experiment: cell-based or functional assay; remark: another data set of the same source

Binder	STAT5 activation of CTLL-2 cells, EC50 [nM]
B14	0.01
B15	0.03
B16	5.5
